Results from publication PMC7851689, “Expanding the Enzyme Repertoire for Sugar Nucleotide Epimerization: the CDP-Tyvelose 2-Epimerase from Thermodesulfatator atlanticus for Glucose/Mannose Interconversion” (Applied and Environmental Microbiology, 2021).

Assays:
[1] = molecular target: CDP-tyvelose 2-epimerase-like enzyme from Thermodesulfatator atlanticus (TaCPa2E) (Thermodesulfatator atlanticus); experiment: SEC; gel filtration of the purified C-terminally His-tagged protein; conditions not shown (Fig. S3 and S4, supplemental material)
[2] = substrate: Nc1ccn([C@@H]2O[C@H](COP(=O)(O)OP(=O)(O)O[C@H]3O[C@H](CO)[C@@H](O)[C@H](O)[C@H]3O)[C@@H](O)[C@H]2O)c(=O)n1; experiment: purified protein; conditions: pH 7.5; 60.0 °C
[3] = substrate: Nc1ccn([C@@H]2O[C@H](COP(=O)(O)OP(=O)(O)O[C@H]3O[C@H](CO)[C@@H](O)[C@H](O)[C@@H]3O)[C@@H](O)[C@H]2O)c(=O)n1; experiment: purified protein; conditions: pH 7.5; 60.0 °C

stoichiometry N [1]	Molecule	Km [2] [µM]	Km [3] [µM]
2	CDP-tyvelose 2-epimerase-like enzyme from Thermodesulfatator atlanticus (TaCPa2E)		
	TaCPa2E (Thermodesulfatator atlanticus) (protein) MKYLITGGCGFLGSNLASEVLRKREELIIFDNLYRIGSYENLEWLKQQGDFRFVHGDIRNREDIEKVIKEEKPDVIFHLAGQVAMTTSIENPRLDFEVNALGTFNLLDAVRKYSPESIIIYSSTNKVYGDLGWVRYEETETRYIAPDFPNGFPESIPLDFHSPYGCSKGAADQYMLDFCRIYGIKTVVFRHSSMYGGRQFATYDQGWIGWFCLKAIEIKKGLLKEPFTIHGNGKQVRDVLYADDMIELYFKTIENIEKAKGEAFNIGGGMENSLSLLELFSLLEKELDIKMRYKKLPWRESDQKIFVADIRKAQKLIGWQPKVSKYNGIQKMLEWIKKLV	320 ± 20	310 ± 10
